Laboratory results: publication PMC9256709

Biological target: AGL6 fused to YFP or CFP (Arabidopsis thaliana) (UniProt P29386)
Test: FRET or BRET; in vivo FRET on the FYL1-AGL6-AGL6-AGL15 tetramer: one CFP and one YFP fusion co-expressed with the unlabeled other members in tobacco leaf cells; steady-state FRET efficiency in nuclei

Sequence of UniProt P29386 (P29386 whole entry, the tested form may be a part): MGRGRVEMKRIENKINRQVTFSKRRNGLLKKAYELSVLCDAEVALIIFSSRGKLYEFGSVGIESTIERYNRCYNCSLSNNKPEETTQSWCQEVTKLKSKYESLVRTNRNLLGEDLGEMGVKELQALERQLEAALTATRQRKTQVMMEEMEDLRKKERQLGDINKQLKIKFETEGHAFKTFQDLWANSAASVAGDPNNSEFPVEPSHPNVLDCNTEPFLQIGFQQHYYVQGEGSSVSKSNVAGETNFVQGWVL

## FYF-like 1 (FYL1/AGL71) fused to CFP or YFP (from UniProt Q9LT93 1-207) (natural protein)
  FRET efficiency (AGL6:CFP/FYL1:YFP, unlabeled AGL15 co-expressed): 32%
